Measurements taken from patent US20210255174.

Assays:
[1] = target: Control peptide #113: [4-Mu]…[DABCYL]-Hex
[2] = target: Control peptide #112: [5-Fam]…[DABCYL]-Hex

B1: Thermolysin (protein)
chain: ITGTSTVGVGRGVLGDQKNINTTYSTYYYLQDNTRGNGIFTYDAKYRTTLPGSLWADADNQFFASYDAPAVDAHYYAGVTYDYYKNVHNRLSYDGNNAAIRSSVHYSQGYNNAFWNGSQMVYGDGDGQTFIPLSGGIDVVAHELTHAVTDYTAGLIYQNESGAINEAISDIFGTLVEFYANKNPDWEIGEDVYTPGISGDSLRSMSDPAKYGDPDHYSKRYTGTQDNGGVHINSGIINKAAYLISQGGTHYGVSVVGIGRDKLGKIFYRALTQYLTPTSNFSQLRAAAVQSATDLYGSTSQEVASVKQAFDAVGVK
[1]
  KM: 6.45 µM
[2]
  KM: 3.58 µM

B2: Proteinase K (protein)
chain: AAQTNAPWGLARISSTSPGTSTYYYDESAGQGSCVYVIDTGIEASHPEFEGRAQMVKTYYYSSRDGNGHGTHCAGTVGSRTYGVAKKTQLFGVKVLDDNGSGQYSTIIAGMDFVASDKNNRNCPKGVVASLSLGGGYSSSVNSAAARLQSSGVMVAVAAGNNNADARNYSPASEPSVCTVGASDRYDRRSSFSNYGSVLDIFGPGTSILSTWIGGSTRSISGTSMATPHVAGLAAYLMTLGKTTAASACRYIADTANKGDLSNIPFGTVNLLAYNNYQA
[1]
  KM: 4.87 µM
[2]
  KM: 3.37 µM
